Reference: PMC3253924 (DNA Repair, 2011)
Like-named read-outs stand apart in the source and are kept apart here.

B1: mouse TREX1 catalytic core (residues 1-242), wild type (enzyme, UniProt Q91XB0 1-242, looked up)
chain: MGSQTLPHGHMQTLIFLDLEATGLPSSRPEVTELCLLAVHRRALENTSISQGHPPPVPRPPRVVDKLSLCIAPGKACSPGASEITGLSKAELEVQGRQRFDDNLAILLRAFLQRQPQPCCLVAHNGDRYDFPLLQTELARLSTPSPLDGTFCVDSIAALKALEQASSPSGNGSRKSYSLGSIYTRLYWQAPTDSHTAEGDVLTLLSICQWKPQALLQWVDEHARPFSTVKPMYGTPATTGTT
B2: mouse TREX1 catalytic core (residues 1-242), D200N mutant (enzyme, UniProt Q91XB0 1-242, looked up)
chain: MGSQTLPHGHMQTLIFLDLEATGLPSSRPEVTELCLLAVHRRALENTSISQGHPPPVPRPPRVVDKLSLCIAPGKACSPGASEITGLSKAELEVQGRQRFDDNLAILLRAFLQRQPQPCCLVAHNGDRYDFPLLQTELARLSTPSPLDGTFCVDSIAALKALEQASSPSGNGSRKSYSLGSIYTRLYWQAPTDSHTAEGNVLTLLSICQWKPQALLQWVDEHARPFSTVKPMYGTPATTGTT
B3: mouse TREX1 catalytic core (residues 1-242), V201D mutant (enzyme, UniProt Q91XB0 1-242, looked up)
chain: MGSQTLPHGHMQTLIFLDLEATGLPSSRPEVTELCLLAVHRRALENTSISQGHPPPVPRPPRVVDKLSLCIAPGKACSPGASEITGLSKAELEVQGRQRFDDNLAILLRAFLQRQPQPCCLVAHNGDRYDFPLLQTELARLSTPSPLDGTFCVDSIAALKALEQASSPSGNGSRKSYSLGSIYTRLYWQAPTDSHTAEGDDLTLLSICQWKPQALLQWVDEHARPFSTVKPMYGTPATTGTT
B4: mouse TREX1 catalytic core (residues 1-242), D18N mutant (enzyme, UniProt Q91XB0 1-242, looked up)
chain: MGSQTLPHGHMQTLIFLNLEATGLPSSRPEVTELCLLAVHRRALENTSISQGHPPPVPRPPRVVDKLSLCIAPGKACSPGASEITGLSKAELEVQGRQRFDDNLAILLRAFLQRQPQPCCLVAHNGDRYDFPLLQTELARLSTPSPLDGTFCVDSIAALKALEQASSPSGNGSRKSYSLGSIYTRLYWQAPTDSHTAEGDVLTLLSICQWKPQALLQWVDEHARPFSTVKPMYGTPATTGTT
B5: mouse TREX1 catalytic core (residues 1-242), D200H mutant (enzyme, UniProt Q91XB0 1-242, looked up)
chain: MGSQTLPHGHMQTLIFLDLEATGLPSSRPEVTELCLLAVHRRALENTSISQGHPPPVPRPPRVVDKLSLCIAPGKACSPGASEITGLSKAELEVQGRQRFDDNLAILLRAFLQRQPQPCCLVAHNGDRYDFPLLQTELARLSTPSPLDGTFCVDSIAALKALEQASSPSGNGSRKSYSLGSIYTRLYWQAPTDSHTAEGHVLTLLSICQWKPQALLQWVDEHARPFSTVKPMYGTPATTGTT

Legend:
[1] = target: the molecule itself; test: crystal structure
[2] = target: the molecule itself; test: crystal structure; remark: listed apart in the source

Protein	binding result [1]	binding result [2]
B1	binds	–
B2	–	binds
B3	–	binds
B4	–	binds
B5	–	binds
